Our source for the % Binding and Kd values is US20250011368A1, “DLL3 TARGETING PEPTIDES AND CONSTRUCTS THEREOF” (MARIANA ONCOLOGY INC., priority 2023, published 2025).

The target in experiment [1] is DLL3 on CT26.DLL3 cells (Homo sapiens (Human)) (UniProt Q9NYJ7). Put plainly: 177Lu-peptide bound to CT26.DLL3 cells, gamma counting; letter grade, key in paragraph 629.
The next experiment deals with T1, DLL3 on SHP-77 cells (human, UniProt Q9NYJ7 27-618).
T1 construct: SHP-77 cells are human-derived, non-engineered SCLC cells
T1 sequence: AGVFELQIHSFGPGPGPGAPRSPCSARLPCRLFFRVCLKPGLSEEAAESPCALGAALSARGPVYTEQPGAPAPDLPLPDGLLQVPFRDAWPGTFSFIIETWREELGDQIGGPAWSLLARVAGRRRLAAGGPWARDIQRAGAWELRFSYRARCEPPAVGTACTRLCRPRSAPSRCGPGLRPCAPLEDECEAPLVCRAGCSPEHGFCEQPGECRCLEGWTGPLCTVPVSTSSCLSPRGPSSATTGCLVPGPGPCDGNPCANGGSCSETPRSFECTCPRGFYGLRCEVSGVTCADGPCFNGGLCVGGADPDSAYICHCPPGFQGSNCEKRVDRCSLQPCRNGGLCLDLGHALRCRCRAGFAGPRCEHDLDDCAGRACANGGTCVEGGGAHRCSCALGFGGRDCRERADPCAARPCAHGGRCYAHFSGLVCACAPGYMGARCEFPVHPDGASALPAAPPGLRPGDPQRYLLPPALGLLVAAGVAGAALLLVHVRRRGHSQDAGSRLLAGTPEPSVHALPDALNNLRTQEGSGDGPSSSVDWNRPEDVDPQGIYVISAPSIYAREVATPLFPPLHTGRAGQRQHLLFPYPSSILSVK
Put plainly: 177Lu-peptide bound to SHP-77 cells, gamma counting; letter grade, key in paragraph 629. Here is the method: The study was conducted using SHP-77, CT26.WT, and CT26.DLL3 cells (Table 7) Adherent cell studies: The cells were cultured in appropriate culture media (20 mL) in tissue culture treated T150 flasks at 37° C. and 5% CO2. Adherent cells were detached (60-70% confluent) using 5 mL Versene at 37° C. for 3 minutes. After confirming the viability using countess and count of detached cells using Trypan blue, the cells were centrifuged at 4° C. for 5 minutes (1,000 rpm). The cell pellet obtained was washed once with PBS and resuspended in 1% PBSA to obtain the desired cell concentration (5-25 million cells/mL).
Total uptake: Cells were incubated with 300 μL (0.8 μCi) of the incubation buffer (containing radiolabeled peptide [¹⁷⁷Lu] Lu-test peptide) for 1 hour at 37° C. (Table 8). Post incubation, the cells were pelleted and washed 2 times using cold PBS+1% BSA. The supernatant and washes were combined and counted together as “unbound fraction” in a gamma counter. The cells were then resuspended in 300 μL of 1% PBS+1% BSA and counted in the gamma counter as “bound fraction”.

In experiment [2] the target is T2, Biotinylated human DLL3 (Delta Like Canonical Notch Ligand 3) (human, UniProt Q9NYJ7 27-492, limits assumed, biotinylated (site not stated)).
T2 construct: also called Delta-like protein 3; biotinylated target ligand human DLL3
T2 sequence: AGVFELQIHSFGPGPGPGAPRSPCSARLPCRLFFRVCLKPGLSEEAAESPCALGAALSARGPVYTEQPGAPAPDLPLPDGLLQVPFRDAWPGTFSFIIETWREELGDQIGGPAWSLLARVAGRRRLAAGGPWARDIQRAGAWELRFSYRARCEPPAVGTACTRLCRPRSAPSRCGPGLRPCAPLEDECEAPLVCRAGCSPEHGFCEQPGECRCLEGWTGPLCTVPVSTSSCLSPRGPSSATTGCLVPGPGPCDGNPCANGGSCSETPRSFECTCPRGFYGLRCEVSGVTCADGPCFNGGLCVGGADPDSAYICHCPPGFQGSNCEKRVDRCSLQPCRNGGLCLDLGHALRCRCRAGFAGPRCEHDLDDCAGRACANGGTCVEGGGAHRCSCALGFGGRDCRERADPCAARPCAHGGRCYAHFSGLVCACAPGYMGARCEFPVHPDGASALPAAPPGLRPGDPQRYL
In words: SPR; letter grade, key in paragraph 614; lower limit of grade B. Here is the method: (§1) Biotinylated target ligand human DLL3 was immobilized on a streptavidin sensor chip. A reference surface was set up for nonspecific binding and refractive index changes. For analysis of the kinetics of interactions, varying concentrations of samples were injected at a flow rate of 100 μL/minute using running buffer containing 20 mM phosphate buffer with 2.7 mM KCl, 137 mM NaCl, 0.05% Surfactant P20 and 2% DMSO. Sensorgram curves were fitted with 1:1 binding model, and affinity and kinetic parameters were obtained using Biacore Insight evaluation 4.0. software.

The target of experiment [3] is T2, Biotinylated human DLL3 (Delta Like …). In words: SPR; letter grade, key in paragraph 614; upper limit of grade B. How it is done:
as §1
For orientation: Surface plasmon resonance follows binding to a sensor surface in real time, without labels.

In experiment [4] the target is Biotinylated human DLL3 (Delta Like Canonical Notch Ligand 3) (human) (UniProt Q9NYJ7). In words: SPR; letter grade, key in paragraph 614.

Numbered stars: 1 amine (or outer) side, 2 acyl side, 3 side chain; on linkers, the order of the positions; unused ones are H or OH. Bridge positions count the residues as written; N and C are the ends. Square brackets hold non-standard residues; d marks the D form. * marks the point of attachment. Ala(piperidin-4-yl) = O=C([C@H](CC1CCN([*:3])CC1)N[*:1])[*:2]; DOTA = O=C(O)CN1CCN(CC(=O)O)CCN(CC(=O)*)CCN(CC(=O)O)CC1; Trp(5-F) = N[C@@H](Cc1c[nH]c2ccc(F)cc12)C(=O)O; Trp(7-aza) = N[C@@H](Cc1c[nH]c2ncccc12)C(=O)O; Pro(trans-4-F) = O=C(O)[C@@H]1C[C@@H](F)CN1; 2Nal = N[C@@H](Cc1ccc2ccccc2c1)C(=O)O; Cha = N[C@@H](CC1CCCCC1)C(=O)O

On to Ac-WTIC[Ala(piperidin-4-yl)]N[2Nal]KDCWP[dK](DOTA)-NH2 (disulfide 4-10; not fully specified (residue 8); also: 177Lu chelated in DOTA) [[177Lu]Lu-labelled Cpd No. 326], for which the % Binding (in experiment [1]; with DLL3 on SHP-77 cells) was under 25% each time.

As a reminder, the Kd is the equilibrium constant for the complex coming apart. Turning to Ac-WTICNNWHDCWP[dK](DOTA)-NH2 (disulfide 4-10) [Cpd No. 23], the Kd in experiment [2] is over 1 nM; in experiment [3], at most 10 nM.

Ac-[Trp(5-F)]T[Cha]CNN[2Nal]HDC[Trp(7-aza)][Pro(trans-4-F)][dK](DOTA)-NH2 (disulfide 4-10) [Cpd No. 245] gave a Kd in experiment [4] of under 1 nM.
